Measured values taken from paper PMC3040262 (Biochemistry, 2011).

Molecular target: PP1α_(7-330), His6-tag removed by TEV protease (UniProt P62136 7-330)
Assay: SEC

Sequence of PP1α_(7-330), His6-tag removed by TEV protease (P62136 7-330): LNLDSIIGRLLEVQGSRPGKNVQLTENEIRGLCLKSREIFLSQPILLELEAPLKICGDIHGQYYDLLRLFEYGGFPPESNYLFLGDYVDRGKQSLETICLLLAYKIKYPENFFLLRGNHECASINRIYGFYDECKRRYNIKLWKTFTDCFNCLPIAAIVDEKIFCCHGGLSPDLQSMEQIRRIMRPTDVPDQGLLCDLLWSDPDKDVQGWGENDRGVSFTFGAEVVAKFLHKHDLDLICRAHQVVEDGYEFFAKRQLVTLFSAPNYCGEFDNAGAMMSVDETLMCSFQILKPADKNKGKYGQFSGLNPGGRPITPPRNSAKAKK

stoichiometry N: 1
B1: spinophilin_(417-583) (domain or fragment)
chain: not shown
